Biological target: polyketide synthase 16 (Pks16) (D. discoideum (endogenous in AX2-214 cells)) (UniProt Q869W9)
Experiment: cryo-EM structure

stoichiometry N: 2
Substance: polyketide synthase 16 (Pks16), Q869W9 1-2603
